Assay [1] deals with Egg nucleoplasmin (eNP) from Xenopus laevis (X. laevis) (UniProt P05221). Description: native gel or EMSA; 2D electrophoresis (4–16% native PAGE, then 12.5% SDS–PAGE) of the high molecular mass complex and densitometry with known amounts of each protein as standards; Buffer I, 240 mM NaCl. (A gel shift assay detects complexes by their altered migration in electrophoresis.)
For assay [2] the target is unchanged. Description: co-sedimentation; 5–20% sucrose gradient in Buffer I (240 mM NaCl), NP 0.9 µM mixed with histones, 1 h 25°C, 29 000 rpm 22 h 4°C; fractions by A230 and SDS–PAGE.
Assay [3] has the same target. Description: AUC; sedimentation equilibrium, Buffer I (0.24 M NaCl), NP 0.3 µM, 4°C, 8000 and 12 000 rpm, fit to a single ideal species.

UniProt P05221, sequence (P05221 whole entry): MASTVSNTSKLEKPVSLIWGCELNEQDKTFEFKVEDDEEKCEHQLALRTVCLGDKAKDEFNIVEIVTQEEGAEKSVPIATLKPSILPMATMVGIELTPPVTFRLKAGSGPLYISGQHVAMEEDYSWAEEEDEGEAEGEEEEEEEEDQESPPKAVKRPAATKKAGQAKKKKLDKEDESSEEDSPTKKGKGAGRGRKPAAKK

For “Natural source histone octamer from chicken erythrocyte chromatin (from UniProt P70081 1-103) (complex)”, the stoichiometry N (octamer per NP pentamer) in assay [1] turned out to be 0.54; in assay [2], 0.5. Further, the stoichiometry N (eNP pentamers per histone octamer) in assay [3] was 2.
Regarding “Natural source histones H3-H4 from chicken erythrocyte chromatin (from UniProt P84229 1-136; P70081 1-103) (complex)”, the stoichiometry N (H3-H4 dimers per NP pentamer) in assay [1] is 2.1.

Values taken from paper PMC3902905.
